Data taken from publication PMC2825244.

Biological target: Chemokine receptor four (CXCR4) (human (endogenous in JJ)) (UniProt P61073)
UniProt P61073, sequence (P61073 whole entry): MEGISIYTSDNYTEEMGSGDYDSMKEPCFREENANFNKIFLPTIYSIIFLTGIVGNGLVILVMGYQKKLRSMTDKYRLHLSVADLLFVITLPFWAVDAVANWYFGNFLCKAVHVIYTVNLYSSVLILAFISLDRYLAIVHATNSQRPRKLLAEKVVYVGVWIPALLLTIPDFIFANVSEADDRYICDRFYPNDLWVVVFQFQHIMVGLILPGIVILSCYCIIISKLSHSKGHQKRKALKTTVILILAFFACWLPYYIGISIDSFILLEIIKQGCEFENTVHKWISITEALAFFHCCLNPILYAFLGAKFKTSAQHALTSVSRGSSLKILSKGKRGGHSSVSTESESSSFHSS

Substance: human recombinant SDF-1 (stromal cell derived factor one) (from UniProt P48061 22-93) (ligand)
- MMP1 mRNA (qRT-PCR, fold) in JJ cells in hypoxia with SDF1 10 ng/ml, against 9 fold by hypoxia alone; the SDF1 mediated increase was blocked by the CXCR4 inhibitor AMD3100 0.1 μM: 23 fold
